First the molecules themselves.
B1: KSHV smallest capsid protein (SCP) (natural protein)
chain: MSNFKVRDPVIQERLDHDYAHHPLVARMNTLDQGNMSQAEYLVQKRHYLVFLIAHHYYEAYLRRMGGIQRRDHLQTLRDQKPRERADRVSAASAYDAGTFTVPSRPGPASGTTPGGQDSLGVSGSSITTLSSGPHSLSPASDILTTLSSTTETAAPAVADARKPPSGKKK
B2: KSHV major capsid protein (MCP) (natural protein)
chain: MEATLEQRPFPYLATEANLLTQIKESAADGLFKSFQLLLGKDAREGSVRFEALLGVYTNVVEFVKFLETALAAACVNTEFKDLRRMIDGKIQFKISMPTIAHGDGRRPNKQRQYIVMKACNKHHIGAEIELAAADIELLFAEKETPLDFTEYAGAIKTITSALQFGMDALERGLVDTVLAVKLRHAPPVFILKTLGDPVYSERGLKKAVKSDMVSMFKAHLIEHSFFLDKAELMTRGKQYVLTMLSDMLAAVCEDTVFKGVSTYTTASGQQVAGVLETTDSVMRRLMNLLGQVESAMSGPAAYASYVVRGANLVTAVSYGRAMRNFEQFMARIVDHPNALPSVEGDKAALADGHDEIQRTRIAASLVKIGDKFVAIESLQRMYNETQFPCPLNRRIQYTYFFPVGLHLPVPRYSTSVSVRGVESPAIQSTETWVVNKNNVPLCFGYQNALKSICHPRMHNPTQSAQALNQAFPDPDGGHGYGLRYEQTPNMNLFRTFHQYYMGKNVAFVPDVAQKALVTTEDLLHPTSHRLLRLEVHPFFDFFVHPCPGARGSYRATHRTMVGNIPQPLAPREFQESRGAQFDAVTNMTHVIDQLTIDVIQETAFDPAYPLFCYVIEAMIHGQEEKFVMNMPLIALVIQTYWVNSGKLAFVNSYHMVRFICTHMGNGSIPKEAHGHYRKILGELIALEQALLKLAGHETVGRTPITHLVSALLDPHLLPPFAYHDVFTDLMQKSSRQPIIKIGDQNYDNPQNRATFINLRGRMEDLVNNLVNIYQTRVNEDHDERHVLDVAPLDENDYNPVLEKLFYYVLMPVCSNGHMCGMGVDYQNVALTLTYNGPVFADVVNAQDDILLHLENGTLKDILQAGDIRPTVDMIRVLCTSFLTCPFVTQAARVITKRDPAQSFATHEYGKDVAQTVLVNGFGAFAVADRSREAAETMFYPVPFNKLYADPLVAATLHPLLANYVTRLPNQRNAVVFNVPSNLMAEYEEWHKSPVAAYAASCQATPGAISAMVSMHQKLSAPSFICQAKHRMHPGFAMTVVRTDEVLAEHILYCSRASTSMFVGLPSVVRREVRSDAVTFEITHEIASLHTALGYSSVIAPAHVAAITTDMGVHCQDLFMIFPGDAYQDRQLHDYIKMKAGVQTGSPGNRMDHVGYTAGVPRCENLPGLSHGQLATCEIIPTPVTSDVAYFQTPSNPRGRAACVVSCDAYSNESAERLLYDHSIPDPAYECRSTNNPWASQRGSLGDVLYNITFRQTALPGMYSPCRQFFHKEDIMRYNRGLYTLVNEYSARLAGAPATSTTDLQYVVVNGTDVFLDQPCHMLQEAYPTLAASHRVMLDEYMSNKQTHAPVHMGQYLIEEVAPMKRLLKLGNKVVY

Common to all, as to assay: cryo-EM structure
Series [1] has as its target KSHV triplex protein Tri1 (Kaposi's sarcoma-associated herpesvirus (KSHV)).
The target in series [2] is KSHV triplex protein Tri2 (Kaposi's sarcoma-associated herpesvirus (KSHV)).
In series [3] the target is B2.
The series “cryo-EM structure” deals with the molecule itself.

“And” between values parts separate entries of the source, which are not always exact repeats. Equal values may be shown once.

“KSHV triplex protein Tri2 (natural protein)”: the stoichiometry N in series [1] and in series [2] was 2 throughout.

Consider B1, for which the binding result in series [3] is on record as “binds”.

For the molecule B2, the “stoichiometry N” value in the series “cryo-EM structure” was 5 and 6.

Source of the values: publication PMC6039102 (Nature, 2018).
